From patent publication US20140154256A1 (published 2014)

T1: recombinant human IL-1α (human, UniProt P01583 113-271)
T1 construct: Bought recombinant protein; also called rhIL-1α; hIL-1α
T1 sequence (looked up): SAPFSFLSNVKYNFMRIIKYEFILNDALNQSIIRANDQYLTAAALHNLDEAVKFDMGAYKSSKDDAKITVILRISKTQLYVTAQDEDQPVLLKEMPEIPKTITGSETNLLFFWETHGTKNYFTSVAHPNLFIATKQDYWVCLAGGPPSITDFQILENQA


Tests used:
recombinant human IL-1α [1] = target: T1, recombinant human IL-1α; experiment: SPR (Biacore); hIL-1α as 1st antigen
Protocol: (§1) The equilibrium dissociation constant (M) of the reaction between DVD-Ig and rhIL1α/β was then calculated from the kinetic rate constants by the following formula: KD=koff/kon. Aliquots of rhIL1α/β samples were also simultaneously injected over a blank reference and reaction CM surface to record and subtract any nonspecific binding background to eliminate the majority of the refractive index change and injection noise. Surfaces were regenerated with two subsequent […] injections of 10 mM Glycine (pH 1.5) at a flow rate of […]. The anti-Fc antibody immobilized surfaces were completely regenerated and retained their full capture capacity over twelve cycles. The apparent stoichiometry of the captured DVD-Ig-rhIL1α/β complex was calculated under saturating binding conditions (steady-state equilibrium) using the following formula: […]
(§2) In addition, tetravalent dual-specific antigen binding of DVD-Ig was also analyzed by Biacore (Table 14). DVD-Ig was first captured via a goat anti-human Fc antibody on the Biacore sensor chip, and the first antigen was injected and a binding signal observed. As the DVD-Ig was saturated by the first antigen, the second antigen was then injected and the second signal observed. This was done either by first injecting IL-1β then IL-1α or by first injecting IL-1α followed by IL-1β for DVD2-Ig. In either sequence, a dual-binding activity was detected. […]

recombinant human IL-1α [2] = target: T1, recombinant human IL-1α; experiment: SPR (Biacore); hIL-1α as 2nd antigen, DVD2-Ig already occupied by hIL-1β
Protocol: as §1, §2

recombinant human IL-1β [3] = target: T2, recombinant human IL-1β (human, UniProt P01584 117-269); experiment: cell-based or functional assay
recombinant human IL-1α [4] = target: T1, recombinant human IL-1α; experiment: cell-based or functional assay
recombinant human IL-1β [5] = target: T2, recombinant human IL-1β; experiment: SPR (Biacore)
Protocol: as §1, with “Purified DVD-Ig samples were diluted in HEPES-buffered saline for capture across goat anti-human IgG Fc specific reaction surfaces and injected over reaction matrices at a flow rate of […]. The association and dissociation rate constants, kon (M-1s-1) and koff (s−1) were determined under a continuous flow rate of […]. […] The equilibrium” for “The equilibrium”
(§3) The affinity of the two DVD-Igs to hIL-1 as compared to the affinity of chimeric Abs to hIL-1 was similar as indicated by the evaluation of the stoichiometry to IL-1. Both chimeric Abs, being bivalent monospecific, bound to IL-1α and IL-1β on Biocore with a stoichiometry of 1.6 and 1.7, respectively. This is common for an IgG due to inter-molecular interference when antibodies are immobilized densely on the Biacore sense chip resulting in stoichiometry being in the range from 1.5 to 2.0.

recombinant human IL-1α [6] = target: T1, recombinant human IL-1α; experiment: SPR (Biacore)
Protocol: as §1, with “Purified DVD-Ig samples were diluted in HEPES-buffered saline for capture across goat anti-human IgG Fc specific reaction surfaces and injected over reaction matrices at a flow rate of […]. The association and dissociation rate constants, kon (M-1s-1) and koff (s−1) were determined under a continuous flow rate of […]. […] The equilibrium” for “The equilibrium”
as §3

recombinant human IL-1β [7] = target: T2, recombinant human IL-1β; experiment: SPR (Biacore); hIL-1β as 2nd antigen, DVD2-Ig already occupied by hIL-1α
Protocol: as §1, §2

recombinant human IL-1β [8] = target: T2, recombinant human IL-1β; experiment: SPR (Biacore); hIL-1β as 1st antigen
Protocol: as §1, §2

recombinant human IL-1β [9] = target: T2, recombinant human IL-1β; experiment: SPR (Biacore); hIL-1β as 2nd antigen, DVD1-Ig already occupied by hIL-1α
Protocol: as §1, §2

recombinant human IL-1β [10] = target: T2, recombinant human IL-1β; experiment: SPR (Biacore 3000); antibody captured via goat anti-human IgG Fc, antigen injected, 1:1 Langmuir fit
Protocol: (§4) The kinetics of DVD-Ig binding to rhIL1-α and rhIL1-β was determined by surface plasmon resonance-based measurements with a Biacore 3000 instrument (Biacore AB, Uppsala, Sweden) using HBS-EP (10 mM HEPES, pH 7.4, 150 mM NaCl, 3 mM EDTA, and 0.005% surfactant P20) at 25° C. All chemicals were obtained from Biacore AB (Uppsala, Sweden) or otherwise from a different source as described herein. Approximately, 5000 RU of goat anti-human IgG Fcγ fragment specific polyclonal antibody (Pierce Biotechnology Inc, Rockford, Ill.) diluted in 10 mM sodium acetate (pH 4.5) was directly immobilized across a CM5 research grade biosensor chip using a standard amine coupling kit according to manufacturer's instructions and procedures at 25 mg/ml. Unreacted moieties on the biosensor surface were blocked with ethanolamine. Modified carboxymethyl dextran surface in flowcell 2 and 4 was used as a reaction surface. Unmodified carboxymethyl dextran without goat anti-human IgG in flow cell 1 and 3 was used as the reference surface. For kinetic analysis, rate equations derived from the 1:1 Langmuir binding model were fitted simultaneously to association and dissociation phases of all ten injections (using global fit analysis) using the Bioevaluation 4.0.1 software. Purified DVD-Ig samples were diluted in HEPES-buffered saline for capture across goat anti-human IgG Fc specific reaction surfaces and injected over reaction matrices at a flow rate of […]. The association and dissociation rate constants, kon (M-1s-1) and koff (s−1) were determined under a continuous flow rate of […]. […] The equilibrium dissociation constant (M) of the reaction between DVD-Ig and rhIL1α/β was then calculated from the kinetic rate constants by the following formula: KD=koff/kon. Aliquots of rhIL1α/β samples were also simultaneously injected over a blank reference and reaction CM surface to record and subtract any nonspecific binding background to eliminate the majority of the refractive index change and injection noise. Surfaces were regenerated with two subsequent […] injections of 10 mM Glycine (pH 1.5) at a flow rate of […]. The anti-Fc antibody immobilized surfaces were completely regenerated and retained their full capture capacity over twelve cycles.

recombinant human IL-1α [11] = target: T1, recombinant human IL-1α; experiment: as above
Protocol: as §4

recombinant human IL-1α [12] = target: T1, recombinant human IL-1α; experiment: SPR (Biacore); hIL-1α as 2nd antigen, DVD1-Ig already occupied by hIL-1β
Protocol: as §1, §2

recombinant human IL-1β [13] = target: T2, recombinant human IL-1β; experiment: SPR (Biacore), saturating conditions
recombinant human IL-1α [14] = target: T1, recombinant human IL-1α; experiment: SPR (Biacore), saturating conditions
recombinant human IL-1β [15] = target: T2, recombinant human IL-1β; experiment: cell-based or functional assay; remark: listed apart in the source
recombinant human IL-1α [16] = target: T1, recombinant human IL-1α; experiment: cell-based or functional assay; remark: listed apart in the source

Row | Binder | Stoichiometry hIL1α:DVD-Ig (recombinant human IL-1α [1]) | Stoichiometry hIL1α:DVD-Ig (recombinant human IL-1α [2]) | dual-inhibition activity, MRC-5 assay with equal amounts of hIL-1α and hIL-1β both present (recombinant human IL-1β [3]) [nM] | dual-inhibition activity, MRC-5 assay with equal amounts of hIL-1α and hIL-1β both present (recombinant human IL-1α [4]) [nM] | fold higher affinity than DVD1-Ig (recombinant human IL-1β [5]) [fold] | fold lower affinity than the chimeric 3D12.E3 Ab (recombinant human IL-1α [6]) [fold] | Stoichiometry hILβ:DVD-Ig (recombinant human IL-1β [7]) | Stoichiometry hILβ:DVD-Ig (recombinant human IL-1β [8]) | Stoichiometry hILβ:DVD-Ig (recombinant human IL-1β [9]) | Kd (recombinant human IL-1β [10]) [nM] | koff (recombinant human IL-1β [10]) [s⁻¹] | kon (recombinant human IL-1β [10]) [M⁻¹ s⁻¹] | Kd (recombinant human IL-1α [11]) [nM] | koff (recombinant human IL-1α [11]) [s⁻¹] | kon (recombinant human IL-1α [11]) [M⁻¹ s⁻¹] | Stoichiometry hIL1α:DVD-Ig (recombinant human IL-1α [12]) | Stoichiometry (recombinant human IL-1β [13]) | Stoichiometry (recombinant human IL-1α [14]) | Potency (IC50) M, MRC-5 bioassay (recombinant human IL-1β [15]) [nM] | Potency (IC50) M, MRC-5 bioassay (recombinant human IL-1α [16]) [nM]
1 | hIL-1α/βDVD2-Ig (bispecific antibody, human IgG1, kappa, 13F5.G5 V - linker (AKTTPP heavy, ADAAP light) - 3D12.E3 V - human Cγ1/Cκ; also called hIL-1a/bDVD2-Ig) heavy: not shown light: NIVLTQSPASLAVSLGQRATISCRASESVDSYGNSYMHWYQQKPGQPPKLLIYLASNLESGVPARFSGSGSRTDFTLTIDPVEADDAATYYCQQNNEDPFTFGSGTKLEIKRADAAPNIQMTQTTSSLSASLGDRVTISCRASQDISNCLNWYQQKPDGTVKLLIYYTSRLHSGVPSRFSGSGSGTDYSLTISNLEQEDIATYFCQQGKTLPYAFGGGTKLEINRTVAAPSVFIFPPSDEQLKSGTASVVCLLNNFYPREAKVQWKVDNALQSGNSQESVTEQDSKDSTYSLSSTLTLSKADYEKHKVYACEVTHQGLSSPVTKSFNRGEC | 1.8 | 1.2 | 1.2 | 1.2 | 3 | 3 | 1.3 | 1.6 |  |  |  |  |  |  |  |  |  |  |  | 
2 | hIL-1α/βDVD1-Ig (bispecific antibody, human IgG1, kappa, 13F5.G5 variable domains fused directly (no linker) to the N-terminus of 3D12.E3 variable domains, human Cγ1/Cκ; also called hIL-1a/bDVD1-Ig) heavy: not shown light: NIVLTQSPASLAVSLGQRATISCRASESVDSYGNSYMHWYQQKPGQPPKLLIYLASNLESGVPARFSGSGSRTDFTLTIDPVEADDAATYYCQQNNEDPFTFGSGTKLEIKRNIQMTQTTSSLSASLGDRVTISCRASQDISNCLNWYQQKPDGTVKLLIYYTSRLHSGVPSRFSGSGSGTDYSLTISNLEQEDIATYFCQQGKTLPYAFGGGTKLEINRTVAAPSVFIFPPSDEQLKSGTASVVCLLNNFYPREAKVQWKVDNALQSGNSQESVTEQDSKDSTYSLSSTLTLSKADYEKHKVYACEVTHQGLSSPVTKSFNRGEC | 2.3 |  | 2.2 | 2.2 |  | 2 to 3 |  | 1.5 | 1 | 2.6 | 0.00159 | 609000 | 2.83 | 0.000105 | 37000 | 1.1 | 1.5 | 1.8 | 3.1 | 2.3
